# According to US20110091971A1, “Differentiation of Pluripotent Stem Cells” (priority 2008, published 2011):
# Positions count from the first letter of the chain named.
# B1: ACTN1: wild type Activin A mature protein (SwissProt/UniProt: P08476), SEQ ID 2, expressed from applicant's construct (protein)
# chain: GLECDGKVNICCKKQFFVSFKDIGWNDWIIAPSGYHANYCEGECPSHIAGTSGSSLSFHSTVINHYRMRGHSPFANLKSCCVPTKLRPMSMLYYDDGQNIIKKDIQNMIVEECGCS
# B2: ACTN4: activin A variant peptide, SEQ ID 5 (protein)
# chain: B1 chain with I10L, F16L, Y39H, E41S, E43L, A75S, N76D, L77M, K78G, S79A
# B3: ACTN48: activin A variant peptide, SEQ ID 49 (protein)
# chain: B1 chain with I10L, F16N, Y39E, E41S, E43L, L77M, K78G, S79A, V82I
# What was measured:
# [1] = tested on: Human Embryonic Stem Cells (H1 hESC line); experiment: High content analysis of cell number and SOX17 expression at end of first step of differentiation (Example 12); type: cell-based; conditions: 100 ng/ml peptide, FIG. 23C-F
# Experimental: (§1) Preparation of Cells for Assay: Stock Cultures of Human Embryonic Stem Cells (H1 hESC line) were maintained in an undifferentiated, pluripotent state on growth factor-reduced MATRIGEL™-coated dishes in MEF conditioned medium supplemented with bFGF (PeproTech; Cat #100-18B) with passage on average every, four days. Passage was performed by exposing cell cultures to a solution of 1 mg/ml collagenase (Invitrogen, Cat #17104-019) for five to seven minutes at 37° C. followed by rinsing the monolayer with MEF conditioned medium and gentle scraping to recover cell clusters. Clusters were centrifuged at low speed to collect a cell pellet and remove residual collagenase. Cell clusters were split at a 1:3 or 1:4 ratio for routine maintenance culture or a 1:1 ratio for immediate assay. All human ES cell lines were maintained at passage numbers less than 50 and routinely evaluated for normal karyotypic phenotype and for absence of mycoplasma contamination.
# (§2) Cell clusters were evenly resuspended in MEF conditioned medium supplemented with 8 ng/ml bFGF and seeded onto growth factor-reduced MATRIGEL™-coated 24-well, black wall culture plates (Arctic White; Cat #AWLS-303012) in volumes of 0.5 ml/well. Daily feeding was conducted by aspirating spent culture medium from each well and replacing with an equal volume of fresh medium. Plates were maintained at 37° C., 5% CO2 throughout the duration of assay.
# (§3) Assay: The assay was initiated by aspirating culture medium from each well and adding back an aliquot (0.5 ml) of test medium. Test conditions for the first step of differentiation were conducted over a three-day period, feeding daily by aspirating and replacing the medium from each well with fresh test medium. Concentrated supernatants of the ACTN peptides were evaluated for protein concentration using a DuoSet ELISA kit for human activin A (R&D Systems; Cat #DY338), as previously described in Example 11. On the first day of assay, ACTN peptides were diluted to a final concentration of 100 ng/ml in RPMI 1640 medium (Invitrogen; Cat #: 22400) with 2% Albumin Bovine Fraction V, Fatty Acid Free (FAF BSA) (MP Biomedicals, Inc; Cat #152401), 8 ng/ml bFGF, and 20 ng/ml Wnt3a (R&D Systems; Cat #1324-WN/CF) and then added to the assay wells. On the second and third day of assay, ACTN peptides were diluted into RPMI 1640 medium supplemented with 2% fatty acid free BSA and 8 ng/ml bFGF, without any Wnt3a and then added to the assay wells. A positive control sample included a commercial source of activin A (PeproTech; Cat #12 0-14) diluted in culture medium with growth factors as indicated. At the conclusion of three days culture, cells from some wells were harvested for analysis by flow cytometry to evaluate levels of CXCR4, a marker of definitive endoderm formation. […]
# [2] = tested on: Human Embryonic Stem Cells (H1 hESC line); experiment: FACS analysis of CXCR4 at conclusion of first step of step-wise differentiation (Example 12); type: cell-based; conditions: 100 ng/ml peptide, end of first step (three days), FIG. 23A, 23B
# Experimental: as §1, §2, §3
Molecule,cell number and SOX17 expression (high content analysis) [1],CXCR4 expression (FACS) [2]
B1,equivalent results,equivalent and robust CXCR4 expression
B2,comparable results,equivalent or comparable
B3,comparable results,equivalent or comparable
